According to publication PMC12724367 (Applied and Environmental Microbiology, 2025):

Columns and labels:
PdG-D-LDH [1] = target: T1, PdG-D-LDH (Nocardiopsis eucommiae, UniProt A0A975LBX7); assay: product inhibition, DCIP reduction assay; assay type: biochemical
T1 construct: gene KGD82_12890; N-terminal His6 tag (pET15b), codon-optimised synthetic gene, E. coli Tuner; no tag cleavage told; homodimer (97 kDa) fraction

PdG-D-LDH [2] = target: T1, PdG-D-LDH; assay: X-ray crystal structure of complex (soak); assay type: binding; conditions: 20 mM D-lactate soaked 10 min; active site, coordinated to Fe(II)
PdG-D-LDH [3] = target: T1, PdG-D-LDH; assay: X-ray crystal structure; HPLC of released flavin; assay type: binding; conditions: non-covalent, active site; co-purified
purified protein [4] = substrate: C[C@@H](O)C(=O)O; assay: purified protein; conditions: 0.075 mM DCIP as electron acceptor, 100 mM glycine-NaOH, pH 9, 25 °C
purified protein [5] = substrate: C[C@H](O)C(=O)O; assay: purified protein; conditions: 0.075 mM DCIP as electron acceptor, 100 mM glycine-NaOH, pH 9, 25 °C
purified protein [6] = substrate: O=C1C=CC(=O)C=C1; assay: purified protein; assay type: biochemical, Nocardiopsis eucommiae; conditions: electron acceptor, 20 mM sodium D-lactate, 100 mM phosphate, pH 7.5, 25 °C
[7] = substrate: O=C1C=C(S(=O)(=O)O)c2ccccc2C1=O; assay: apparent steady-state kinetics, absorbance; assay type: biochemical, Nocardiopsis eucommiae; conditions: electron acceptor, 20 mM sodium D-lactate, 100 mM phosphate, pH 7.5, 25 °C
From the text: apparent steady-state kinetics, absorbance on PdG-D-LDH

In the case of CC(=O)C(=O)O [pyruvate], the IC50 (PdG-D-LDH [1]) is reported as 53 mM.

C[C@@H](O)C(=O)O [D-lactate] was tested, and the “X-ray crystal structure of complex (soak)” value (PdG-D-LDH [2]) was “a metal ion and the substrate D-lactate (in PdG-D-LDH-lactate complex) are clearly defined”.

With Cc1cc2nc3c(=O)[nH]c(=O)nc-3n(C[C@H](O)[C@H](O)[C@H](O)COP(=O)(O)OP(=O)(O)OC[C@H]3O[C@@H](n4cnc5c(N)ncnc54)[C@H](O)[C@@H]3O)c2cc1C [FAD] the “X-ray crystal structure; HPLC of released flavin” value (PdG-D-LDH [3]) was “The structure contains a non-covalently bound FAD at the active site”.

B1: PdG-D-LDH (Nocardiopsis eucommiae) (protein)
chain: MPGVVEELVAAIGTEQVVTDPAVMEGYSHDEAEWAPYGAPAAVVRPRDTADVAAVVRVCARSGVAVVGRGAGTGLSGAANSGRGWVVVSFERMNRVLEVDTVQQTATVQPGVVNDDLRARVAQDGLWYPPDPASAPWSTIGGNVATNAGGLCCVKYGVTRDYVLGMEAVVGTGEVVRLGRTTAKGVTGYDLAGLMVGSEGTLGLVTEVTLRLVPLRRGVEHTVVGYFDSLTDAGRAVAAVSAAGIVPSALELIDRFCLQAVDEWKNMGLSAEGEVLLLARSDLPGASGQEEADRILECFEQEKAVYAVRSTDKEEAEALFQARRLAYPALERLGPLLTEDVCVPKARVPHMLEAIEAAGERFDTRIGNIAHAGDGNLHPLFIVPAGDEEAKRRAKQAFEVIVDEALAVGGTVTGEHGVGLLKMRGAADELGPHVLAMHRAVKGALDPEGIFNPGKVFALEEA
notes: N-terminal His6 tag (pET15b), codon-optimised synthetic gene, E. coli Tuner; no tag cleavage told; homodimer (97 kDa) fraction
In the case of B1, the Km (purified protein [4]) is reported as 1000 ± 100 µM, the kcat (purified protein [4]) is reported as 8.2 s⁻¹ and the kcat/Km (purified protein [4]) is reported as 8000 M⁻¹ s⁻¹. It also gave a Km (purified protein [5]) of 59000 ± 5000 µM, a kcat (purified protein [5]) of 4.7 s⁻¹ and a kcat/Km (purified protein [5]) of 79 M⁻¹ s⁻¹. It also gave a Km (purified protein [6]) of 20 ± 10 µM, a kcat (purified protein [6]) of 1.8 ± 0.1 s⁻¹ and a kcat/Km (purified protein [6]) of 80000 ± 30000 M⁻¹ s⁻¹. For the same molecule, the Km [7] was 80 ± 10 µM, the kcat [7] was 0.95 ± 0.04 s⁻¹ and the kcat/Km [7] was 12000 ± 2000 M⁻¹ s⁻¹.
